Results published in paper PMC4623810.

What was measured:
Experiment in all cases: SPR; Biacore X100; CagA immobilised on CM5 chip by amine coupling, SHP2 or SHP2/SH2 as analyte; KD from Scatchard plots; three independent measurements
[1] = molecular target: pY-CagA(C3)-His (tyrosine-phosphorylated Western CagA with three EPIYA-C segments) (Helicobacter pylori)
[2] = molecular target: pY-CagA(C8)-His (tyrosine-phosphorylated Western CagA with eight EPIYA-C segments) (Helicobacter pylori)
[3] = molecular target: pY-CagA(C2)-His (tyrosine-phosphorylated Western CagA with two EPIYA-C segments) (Helicobacter pylori)
[4] = molecular target: pY-CagA(C5)-His (tyrosine-phosphorylated Western CagA with five EPIYA-C segments) (Helicobacter pylori)
[5] = molecular target: pY-CagA(C1)-His (tyrosine-phosphorylated Western CagA with one EPIYA-C segment) (Helicobacter pylori)

B1: SHP2/SH2 (recombinant N-terminal SHP2 fragment containing two SH2 domains, analyte of the SPR) (domain or fragment)
chain: MTSRRWFHPNITGVEAENLLLTRGVDGSFLARPSKSNPGDFTLSVRRNGAVTHIKIQNTGDYYDLYGGEKFATLAELVQYYMEHHGQLKEKNGDVIELKYPLNCADPTSERWFHGHLSGKEAEKLLTEKGKHGSFLVRESQSHPGDFVLSVRTGDDKGESNDGKSKVTHVMIRCQELKYDVGGGERFDSLTDLVEHYKKNPMVETLGTVLQLKQPLNTTR
For B1, the Kd [1] was 123 nM, the Kd [2] was 40.1 nM and the Kd [3] was 208 nM. It also gave a Kd [4] of 77.8 nM and a Kd [5] of 24100 nM.

B2: full-length SHP2 (recombinant) (enzyme)
chain: MTSRRWFHPNITGVEAENLLLTRGVDGSFLARPSKSNPGDFTLSVRRNGAVTHIKIQNTGDYYDLYGGEKFATLAELVQYYMEHHGQLKEKNGDVIELKYPLNCADPTSERWFHGHLSGKEAEKLLTEKGKHGSFLVRESQSHPGDFVLSVRTGDDKGESNDGKSKVTHVMIRCQELKYDVGGGERFDSLTDLVEHYKKNPMVETLGTVLQLKQPLNTTRINAAEIESRVRELSKLAETTDKVKQGFWEEFETLQQQECKLLYSRKEGQRQENKNKNRYKNILPFDHTRVVLHDGDPNEPVSDYINANIIMPEFETKCNNSKPKKSYIATQGCLQNTVNDFWRMVFQENSRVIVMTTKEVERGKSKCVKYWPDEYALKEYGVMRVRNVKESAAHDYTLRELKLSKVGQGNTERTVWQYHFRTWPDHGVPSDPGGVLDFLEEVHHKQESIMDAGPVVVHCSAGIGRTGTFIVIDILIDIIREKGVDCDIDVPKTIQMVRSQRSGMVQTEAQYRFIYMAVQHYIETLQRRIEEEQKSKRKGHEYTNIKYSLADQTSGDQSPLPPCTPTPPCAEMREDSARVYENVGLMQQQKSFR
For B2, the Kd [3] was 369 nM.
